From article PMC3044229 come the findings set out here.

Read-outs that look alike come from different tables or passages of the source.

The target in data set [1] is T1, GST-ABP9 (Zea mays, UniProt D2KNW6 1-385).
T1 sequence: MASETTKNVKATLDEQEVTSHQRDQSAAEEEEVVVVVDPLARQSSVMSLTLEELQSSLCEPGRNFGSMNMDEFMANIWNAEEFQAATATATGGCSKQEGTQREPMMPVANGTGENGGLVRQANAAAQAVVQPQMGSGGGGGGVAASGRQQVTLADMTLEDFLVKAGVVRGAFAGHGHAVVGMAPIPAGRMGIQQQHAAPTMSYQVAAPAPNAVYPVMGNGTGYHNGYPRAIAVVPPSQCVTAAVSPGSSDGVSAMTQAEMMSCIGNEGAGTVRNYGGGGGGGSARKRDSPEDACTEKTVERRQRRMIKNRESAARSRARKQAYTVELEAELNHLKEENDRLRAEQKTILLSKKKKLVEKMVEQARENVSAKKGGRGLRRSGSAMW
The data set is described as follows: EMSA. (In general: Mobility shift assays separate free from complexed probe on a gel.)

Data set [2] has as its target T1, GST-ABP9. The data set is described as follows: EMSA. This is another data set of the same source.

B1: mABRE2 (dsDNA)
DNA 1: GAAGTAACATGTTCGGTGG
DNA 2: CCACCGAACATGTTACTTC
Turning to B1, the binding result in the data set with GST-ABP9 [1] is given as “no binding”.

B2: ABRE2 (dsDNA)
DNA 1: GAAGTCCACGTGGAGGTGG
DNA 2: CCACCTCCACGTGGACTTC
For B2, the binding result with GST-ABP9 [2] is reported as “binds”.
